This experiment in a line: Saccharification of microcrystalline cellulose by Trichoderma reesei whole cellulase supplemented with β-glucosidase. The class given is biochemical. To be noted: 1 g/L TRWC alone or 25% of TRWC substituted with the β-glucosidase; 200 g/L Avicel, 100 g/L xylose, pH5.5, 55° C., 48 hours. The text has this: FIG. 12 illustrates the impact of supplementing a commercially available Trichoderma reesei whole cellulose (“TRWC”) mixture with a CelA variant of the present invention. Compositions containing TRWC were supplemented with β-glucosdiases CelA Variant No. 264 (“Cel var1”), CelA Variant No. 366 (“Cel var2”), and a commercially available Aspergillus niger β-glucosidase (“ANBG”) in a ratio of 3:1 TRWC to β-glucosidase. The effectiveness of each composition at hydrolyzing microcrystalline cellulose was evaluated as described in Example 15. A plot of glucose and cellobiose concentration (g/L) vs. cellulase composition is depicted. The control composition was TRWC with no added β-glucosidase.
The impact of adding a CelA variant of the present invention to commercially available cellulose mixtures and microcrystalline cellulose, Avicel™, was evaluated. In the test reactions, 1 g/L Trichoderma reesei whole cellulose (“TRWC”, Sigma catalog #C85456-10KU (ATCC 26921)) was used to convert 200 g/L of the microcrystalline cellulose Avicel™ (200 mM Sodium acetate; 100 g/L xylose, pH5.5 and 55° C.). The amount of glucose was measured after 48 hours of reaction. As a comparison, 25% of the TRWC was replaced with a β-glucosidase: Variant No. 264 (“Cel var1”), Variant No. 366 (“Cel var2”), or with the commercially available cellobiase, Aspergillus niger beta-glucosidase (“ANBG”, Sigma catalog #49291-1G). […]

B1: T2A + A5T + I14M + N79D + G127N + A143M + H145R + V159E + A198S + V207F + F211Y + I222A + S225C + Q508R + A525T-des[A647-L663] (protein)
chain: SAAITQEGAAPAAMLHPEKWPRPATQRLIDPAVEKRVDALLKQLSVEEKVGQVIQGDIGTITPEDLRKYPLGSILAGGDSGPNGDDRAPPKEWLDLADAFYRVSLEKRPGHTPIPVLFGIDAVHGHNNIGSATIFPHNIALGMTRDPELLRRIGEVTAEEMAATGIDWTFAPALSVVRDDRWGRTYEGFSEDPEIVASYSAAIVEGFQGKYGSKDFMAPGRAVACAKHFLADGGTDQGRDQGDARISEDELIRIHNAGYPPAIDAGVLTVMASFSSWQGIKHHGHKQLLTDVLKGQMGFNGFIVGDWNAHDQVPGCTKFNCPTSLIAGLDMYMAADSWKQLYENTLAQVKDGTIPMARLDDAVRRILRVKVLAGLFEKPAPKDRPGLPGLETLGSPEHRAVGREAVRKSLVLLKNDKGTLPLSPKARVLVAGDGADNIGKQSGGWTISWQGTGNRNDEFPGATSILGGIRDAVADAGGSVEFDVAGQYKTKPDVAIVVFGEEPYAEFRGDVETLEYQPDQKQDLTLLKKLKDQGIPVVAVFLSGRPMWVNPELNASDAFVAAWLPGTEGGGVADVLFTDKAGKVQHDFAGKLSYSWPRTAAQTTVNRGDADYNPLFAYGYGLTYKDKSKVGTLPEESGVPAEARQN
For B1, the “cellobiose and glucose combined yielded in saccharification reaction” value is recorded as “comparable results”.
